Results as given in patent US10800847.
Values belong to the substance of their own block, whether it stands above or below them.

How the values were obtained:
[1] = molecular target: HLA-B*4006 (B61) single antigen on Luminex beads (human); assay: Luminex single antigen, iBeads (#6), IVIg 1:8
[2] = molecular target: HLA-B*4701 (B47) single antigen on Luminex beads (human); assay: Luminex single antigen, iBeads (#6), IVIg 1:8
[3] = molecular target: HLA-B*4403 (B44) single antigen on Luminex beads (human); assay: Luminex single antigen, iBeads (#6), IVIg 1:8
[4] = molecular target: HLA-B*4002 (B61) single antigen on Luminex beads (human); assay: Luminex single antigen, iBeads (#6), IVIg 1:8
[5] = molecular target: HLA-B*4402 (B44) single antigen on Luminex beads (human); assay: Luminex single antigen, iBeads (#6), IVIg 1:8
[6] = molecular target: HLA-B*2705 (B27) single antigen on Luminex beads (human); assay: Luminex single antigen, iBeads (#6), IVIg 1:8
[7] = molecular target: HLA-B*3801 (B38) single antigen on Luminex beads (human); assay: Luminex single antigen, iBeads (#6), IVIg 1:8
[8] = molecular target: HLA-B*4601 (B46) single antigen on Luminex beads (human); assay: Luminex single antigen, iBeads (#6), IVIg 1:8
[9] = molecular target: HLA-B*3701 (B37) single antigen on Luminex beads (human); assay: Luminex single antigen, iBeads (#6), IVIg 1:8
[10] = molecular target: HLA-B*4101 (B41) single antigen on Luminex beads (human); assay: Luminex single antigen, iBeads (#6), IVIg 1:8
[11] = molecular target: HLA-B*3501 (B35) single antigen on Luminex beads (human); assay: Luminex single antigen, iBeads (#6), IVIg 1:8
[12] = molecular target: HLA-B*4201 (B42) single antigen on Luminex beads (human); assay: Luminex single antigen, iBeads (#6), IVIg 1:8
[13] = molecular target: HLA-B*3901 (B39) single antigen on Luminex beads (human); assay: Luminex single antigen, iBeads (#6), IVIg 1:8
[14] = molecular target: HLA-B*2708 (B27) single antigen on Luminex beads (human); assay: Luminex single antigen, iBeads (#6), IVIg 1:8
[15] = molecular target: HLA-B*4501 (B45) single antigen on Luminex beads (human); assay: Luminex single antigen, iBeads (#6), IVIg 1:8
[16] = molecular target: HLA-B*4006 (B61) single antigen on Luminex beads (human); assay: Luminex single antigen, regular beads (#7), IVIg 1:8
[17] = molecular target: HLA-B*4701 (B47) single antigen on Luminex beads (human); assay: as above
[18] = molecular target: HLA-B*4403 (B44) single antigen on Luminex beads (human); assay: as above
[19] = molecular target: HLA-B*4002 (B61) single antigen on Luminex beads (human); assay: as above
[20] = molecular target: HLA-B*4402 (B44) single antigen on Luminex beads (human); assay: as above
[21] = molecular target: HLA-B*4001 (B60) single antigen on Luminex beads (human); assay: as above
[22] = molecular target: HLA-B*2705 (B27) single antigen on Luminex beads (human); assay: as above
[23] = molecular target: HLA-B*3801 (B38) single antigen on Luminex beads (human); assay: as above
[24] = molecular target: HLA-B*4601 (B46) single antigen on Luminex beads (human); assay: as above
[25] = molecular target: HLA-B*3701 (B37) single antigen on Luminex beads (human); assay: as above
[26] = molecular target: HLA-B*4101 (B41) single antigen on Luminex beads (human); assay: as above
[27] = molecular target: HLA-B*3501 (B35) single antigen on Luminex beads (human); assay: as above
[28] = molecular target: HLA-B*4201 (B42) single antigen on Luminex beads (human); assay: as above
[29] = molecular target: HLA-B*3901 (B39) single antigen on Luminex beads (human); assay: as above
[30] = molecular target: HLA-B*2708 (B27) single antigen on Luminex beads (human); assay: as above
[31] = molecular target: HLA-B*4501 (B45) single antigen on Luminex beads (human); assay: as above
[32] = molecular target: Albumin on negative control beads (serum albumin, HSA/BSA) (human or bovine); assay: Luminex, iBead MFI against regular bead MFI, 1:8
[33] = molecular target: Albumin on negative control beads (serum albumin, HSA/BSA) (human or bovine); assay: Luminex single antigen beads, iBeads (#6), 1:8
[34] = molecular target: Albumin on negative control beads (serum albumin, HSA/BSA) (human or bovine); assay: Luminex single antigen beads, regular beads (#7), 1:8
[35] = molecular target: HLA-A*0301 (A3) on single antigen beads (human) (UniProt P04439); assay: as above
[36] = molecular target: HLA-B*4006 (B61) single antigen on Luminex beads (human); assay: Luminex single antigen, iBead vs regular bead, IVIg 1:8
[37] = molecular target: HLA-B*4701 (B47) single antigen on Luminex beads (human); assay: as above
[38] = molecular target: HLA-B*4403 (B44) single antigen on Luminex beads (human); assay: as above
[39] = molecular target: HLA-B*4002 (B61) single antigen on Luminex beads (human); assay: as above
[40] = molecular target: HLA-B*4402 (B44) single antigen on Luminex beads (human); assay: as above
[41] = molecular target: HLA-B*2705 (B27) single antigen on Luminex beads (human); assay: as above
[42] = molecular target: HLA-B*3801 (B38) single antigen on Luminex beads (human); assay: as above
[43] = molecular target: HLA-B*4601 (B46) single antigen on Luminex beads (human); assay: as above
[44] = molecular target: HLA-B*3701 (B37) single antigen on Luminex beads (human); assay: as above
[45] = molecular target: HLA-B*3501 (B35) single antigen on Luminex beads (human); assay: as above
[46] = molecular target: HLA-B*4201 (B42) single antigen on Luminex beads (human); assay: as above
[47] = molecular target: HLA-B*4501 (B45) single antigen on Luminex beads (human); assay: as above
[48] = molecular target: HLA-B*4001 (B60) single antigen on Luminex beads (human); assay: Luminex single antigen, iBeads (#6), IVIg 1:8
[49] = molecular target: HLA-A*0301 (A3) on single antigen beads (human) (UniProt P04439); assay: Luminex, iBead MFI against regular bead MFI, 1:8
[50] = molecular target: HLA-A*0301 (A3) on single antigen beads (human) (UniProt P04439); assay: Luminex single antigen beads, iBeads (#6), 1:8
[51] = molecular target: HLA-B*2708 (B27) single antigen on Luminex beads (human); assay: Luminex single antigen, iBead vs regular bead, IVIg 1:8
[52] = molecular target: HLA-B*4001 (B60) single antigen on Luminex beads (human); assay: as above
[53] = molecular target: HLA-B*4101 (B41) single antigen on Luminex beads (human); assay: as above
[54] = molecular target: HLA-B*3901 (B39) single antigen on Luminex beads (human); assay: as above

MFI [1]: 2140 MFI | MFI [2]: 2800 MFI | MFI [3]: 2400 MFI | MFI [4]: 1680 MFI | MFI [5]: 1870 MFI | MFI [6]: 1660 MFI | MFI [7]: 1380 MFI | MFI [8]: 3540 MFI | MFI [9]: 3640 MFI | MFI [10]: 1490 MFI | MFI [11]: 1610 MFI | MFI [12]: 1090 MFI | MFI [13]: 242 MFI | MFI [14]: 1340 MFI | MFI [15]: 2110 MFI | MFI [16]: 5390 MFI | MFI [17]: 2550 MFI | MFI [18]: 1110 MFI | MFI [19]: 569 MFI | MFI [20]: 6460 MFI | MFI [21]: 1680 MFI | MFI [22]: 388 MFI | MFI [23]: 1360 MFI | MFI [24]: 3010 MFI | MFI [25]: 6130 MFI | MFI [26]: 716 MFI | MFI [27]: 1670 MFI | MFI [28]: 455 MFI | MFI [29]: 0 MFI | MFI [30]: 0 MFI | MFI [31]: 1110 MFI | Difference % (iBead against regular bead) [32]: -34% | MFI [33]: 7150 MFI | MFI [34]: 10800 MFI | MFI [35]: 0 MFI | Difference % (iBead against regular bead MFI) [36]: -60% | Difference % (iBead against regular bead MFI) [37]: 10% | Difference % (iBead against regular bead MFI) [38]: 116% | Difference % (iBead against regular bead MFI) [39]: 195% | Difference % (iBead against regular bead MFI) [40]: -71% | Difference % (iBead against regular bead MFI) [41]: 327% | Difference % (iBead against regular bead MFI) [42]: 1% | Difference % (iBead against regular bead MFI) [43]: 17% | Difference % (iBead against regular bead MFI) [44]: -41% | Difference % (iBead against regular bead MFI) [45]: -3% | Difference % (iBead against regular bead MFI) [46]: 139% | Difference % (iBead against regular bead MFI) [47]: 91%
Substance: Gamunex-C Lot NKLG1 (IVIg) (antibody)

MFI [1]: 2370 MFI | MFI [2]: 3210 MFI | MFI [3]: 2900 MFI | MFI [4]: 1190 MFI | MFI [5]: 3380 MFI | MFI [48]: 2290 MFI | MFI [6]: 1080 MFI | MFI [7]: 0 MFI | MFI [9]: 392 MFI | MFI [10]: 870 MFI | MFI [11]: 653 MFI | MFI [12]: 286 MFI | MFI [13]: 0 MFI | MFI [14]: 1410 MFI | MFI [15]: 5400 MFI | MFI [16]: 3470 MFI | MFI [17]: 1770 MFI | MFI [18]: 3390 MFI | MFI [21]: 1720 MFI | MFI [22]: 1370 MFI | MFI [23]: 619 MFI | MFI [24]: 1830 MFI | MFI [25]: 3240 MFI | MFI [27]: 680 MFI | MFI [28]: 598 MFI | MFI [29]: 0 MFI | MFI [31]: 3670 MFI | Difference % (iBead against regular bead) [49]: -100% | MFI [33]: 5030 MFI | MFI [50]: 0 MFI | MFI [34]: 3790 MFI | Difference % (iBead against regular bead MFI) [36]: -32% | Difference % (iBead against regular bead MFI) [37]: 81% | Difference % (iBead against regular bead MFI) [40]: -22% | Difference % (iBead against regular bead MFI) [41]: -21% | Difference % (iBead against regular bead MFI) [43]: -20% | Difference % (iBead against regular bead MFI) [44]: -88% | Difference % (iBead against regular bead MFI) [45]: -4% | Difference % (iBead against regular bead MFI) [46]: -52% | Difference % (iBead against regular bead MFI) [51]: 32% | Difference % (iBead against regular bead MFI) [47]: 47%
Substance: GamaSTAN S/D (IVIg, Talecris Biotherapeutics, Inc., USA) (antibody)

MFI [1]: 421 MFI | MFI [3]: 836 MFI | MFI [4]: 0 MFI | MFI [5]: 786 MFI | MFI [48]: 93 MFI | MFI [6]: 0 MFI | MFI [7]: 0 MFI | MFI [8]: 851 MFI | MFI [9]: 612 MFI | MFI [10]: 0 MFI | MFI [11]: 577 MFI | MFI [12]: 0 MFI | MFI [13]: 0 MFI | MFI [14]: 0 MFI | MFI [15]: 399 MFI | MFI [16]: 4340 MFI | MFI [17]: 2030 MFI | MFI [18]: 1210 MFI | MFI [19]: 0 MFI | MFI [20]: 5310 MFI | MFI [23]: 1260 MFI | MFI [24]: 2450 MFI | MFI [25]: 4790 MFI | MFI [26]: 605 MFI | MFI [27]: 1480 MFI | MFI [29]: 0 MFI | MFI [30]: 0 MFI | MFI [31]: 562 MFI | Difference % (iBead against regular bead) [32]: -24% | Difference % (iBead against regular bead) [49]: -151% | MFI [33]: 7800 MFI | MFI [50]: -211 MFI | MFI [34]: 10300 MFI | MFI [35]: 410 MFI | Difference % (iBead against regular bead MFI) [36]: -90% | Difference % (iBead against regular bead MFI) [37]: -39% | Difference % (iBead against regular bead MFI) [38]: -31% | Difference % (iBead against regular bead MFI) [39]: 0% | Difference % (iBead against regular bead MFI) [40]: -85% | Difference % (iBead against regular bead MFI) [52]: -93% | Difference % (iBead against regular bead MFI) [41]: -100% | Difference % (iBead against regular bead MFI) [42]: -100% | Difference % (iBead against regular bead MFI) [43]: -65% | Difference % (iBead against regular bead MFI) [44]: -87% | Difference % (iBead against regular bead MFI) [53]: -100% | Difference % (iBead against regular bead MFI) [45]: -61% | Difference % (iBead against regular bead MFI) [46]: -100% | Difference % (iBead against regular bead MFI) [54]: 0% | Difference % (iBead against regular bead MFI) [51]: 0% | Difference % (iBead against regular bead MFI) [47]: -29%
Substance: Gamunex-C Lot NKLK1 (IVIg) (antibody)
